Source: patent publication US20100196347A1, “BONE GRAFTS WITH REDUCED PROTEASE ACTIVITY AND METHODS OF SELECTION AND USE” (priority 2008, published 2010)

Columns and labels:
[1] = Non-reducing SDS-PAGE of rhPDGF-BB eluted from human FDBA; format: physicochemical; details: data not shown
Description: (§1) In particular, PDGF (0.5 ml of 0.3 mg/ml) was incubated with the freeze-dried bone graft (˜0.5 ml) and mixed for 10 minutes, 60 minutes, or overnight at room temperature. Then 1 mL of 1 M NaCl was added as described above for FIG. 1. The final NaCl concentration was 667 mM. PDGF was separated from the bone graft by centrifugation at 15,334×g for 2 minutes and the supernatant containing PDGF was analyzed by SEC, RPHPLC, ELISA, and non-reducing SDS-PAGE. […] Released PDGF was measured using a standard ELISA assay. The ELISA assay was performed using Quantikine® Human PDGF-BB Immunoassay from R&D Systems, Inc. according to the manufacturer's protocol (see, for example, world wide web at rndsystems.com/pdf/dbb00.pdf). Briefly, a receptor for human PDGF-BB was coated onto a plate, then PDGF was bound and evaluated with a secondary antibody-HRP conjugate and the chromogen tetramethylbenzidine for detection. […] Alternatively, the concentrations of the rhPDGF-BB in supernatants were determined using the size exclusion HPLC (SEC) on TOSOH Biosep TSK-Gel, 7.8 mm×3 cm HPLC column and TOSOH Biosep TSK-Gel, 6.0 mm×4.0 cm precolumn (Tosoh Bioscience, San Francisco, Calif.) by integration of the elution profile of PDGF and using calibration at 5 different concentrations of standard PDGF as shown in FIG. 4C.

[2] = PDGF release from washed demineralized bone graft (ELISA); format: physicochemical
Description: The washes were conducted as follows. The bone graft sample (−0.1 g) was placed in a small plastic tube and then either 1.0 ml of water, saline solution, or elution buffer was added to the sample. The mixture was allowed to sit at room temperature for 5 minutes with occasional gently mixing by hand. At the end of the 5 minutes, the fluid was pulled off the bone graft material using a pipet, and the remaining fluid was removed by compressing the material with a sterile cotton Q-tip applicator. Following this, a solution of 0.3 mg/ml rhPDGF-BB was added to the washed bone graft and samples were removed for quantification of PDGF by ELISA over 60 minutes.

[3] = Binding and release of PDGF from human bone graft (salt elution; ELISA / SEC); format: physicochemical
Description: FIG. 1 summarizes an exemplary protocol for studying the binding and release of PDGF from bone graft. For some experiments, the amounts were scaled down two or ten times to preserve the bone graft materials. In particular, 100 μl of human bone graft (LifeNet, Inc.) was mixed with 100 μl of PDGF at a concentration of 0.3 mg/mL in 20 mM NaOAc, pH 6.0 for ten minutes. The bone graft consisted of dry particles. The bone graft was freeze-dried before being sold (referred to as freeze-dried bone allograft, or FDBA). Then, 200 μl of NaCl (at various concentrations) in 20 mM NaOAc, pH 6.0 or phosphate buffered saline (PBS) (without NaOAc) was added. The solution was then incubated for either 1 hour or 24 hours. PDGF in solution was separated from insoluble human bone graft by centrifugation at ˜2000×g for 5 minutes at 4° C., and then the amount of rhPDGF-BB released from the matrix was determined by colorimetric ELISA Quantikine assy (R & D Systems, Minneapolis, Minn.) using plates coated with the receptor to human PDGF-BB.
as §1, with “The final NaCl concentration was 667 mM.” left out, “The ELISA assay was performed using Quantikine® Human PDGF-BB Immunoassay from R&D Systems, Inc. according to the manufacturer's protocol (see, for example, world wide web at rndsystems.com/pdf/dbb00.pdf).” left out, “4C. […]” for “4C.”

MG-63 cells = test: MG-63 cell-based bioassay of rhPDGF eluted from FDBA; details: eluted from FDBA with NaCl after ten minutes; data not shown

rhPDGF-BB: recombinant human platelet-derived growth factor BB
electrophoretic comparison with control rhPDGF-BB [1]: electrophoretically indistinguishable
amount of PDGF released from DM bone graft ([2]; bone graft washed 5 minutes in saline): More PDGF was released
amount of PDGF released from DM bone graft at the end of the 60 minute study ([2]; bone graft washed 5 minutes in sterile water): decrease
amount of PDGF released from DM bone graft ([2]; bone graft washed in elution buffer): somewhere in the middle between water and saline washes
PDGF release from freeze-dried bone graft with other compounds ([3]; MEM and acetic acid in place of NaCl): release of some PDGF
PDGF released from bone graft by salt incubation ([3]; NaCl up to 1.5 M or PBS, 1 hour or 24 hours, ELISA): significant amount of PDGF was released
rhPDGF-BB bound to the bone graft matrix recovered from the bone graft ([3]; mixture of rhPDGF-BB and bone graft washed with a low ionic strength buffer): less than 10%
biopotency compared to a control sample of rhPDGF-BB (MG-63 cells): retained its biopotency
